A short description of this series: soluble on expression in E. coli; label from the status in PepcDB or PDB records.
Consider “MGSDKIHHHHHHMRNSLLVFTLDCQVKIDSKTVDCQTNIDSFLTPNSNLIIVEVEEIKRILLDQESFLNDKLRKERIITRHYNYSITYNNAYLITGPRRAGKSIFTVQLTKGKEILRVDFDDERLSGIKANELNKFLEAGYQIKKKIEVIILDEIQNVKGWELFVSRIREIYPVIVTGSNARLMSSEMATYLTGRHMDFLVFPFSFKEYLRYKDVKVEETTRGIARLKEELRNYLQQGGFPETFKFDKNEYLRNLYSDIITRDVIIRCKTRKDVKGLADFLLENIGKEVSTRRVGNAFNLSHQSVENYFYCLSNAYLFLFVKRFTGKSLERYTLPRKVYVIDTGLFNTYKRLQMGKMIENLVFLELYKRYGQEVYYYSNGNAEVDFIIKDKFAIQVTYDEGGIDDREYKGLVRFSERFKDYKLIIITWDREGKEIRNGKEITLIPLWKFLVKERFAGEMIGKES”, for which the “soluble on expression in E. coli” value is “not soluble”. In the case of “SEEYDTNFYKKLFDAMFVNEDELKEMGKDPKEYMENLLKEAEEKSLKEKMELYKKYNVIEIDSLEDEYQSTAEGYGNLEDVKKFIQKYDINGVYDGYTLLYTYSGYRGETNIIEFLIENNADIYKKSINGKTPLYSAVDDYFYDAAEVILKHYKDNDDINDEFLLAVNNENEPMLRILLKKKFLFFGNKFKMNLDKGLEIALDKGNKDIAAELVLSGAKTDNFLYYFK” it was “not soluble”.

For “MGHHHHHHSHMAVEDEGLRVFQSVKIKIGEAKNLPSYPGPSKMRDCYCTVNLDQEEVFRTKIVEKSLCPFYGEDFYCEIPRSFRHLSFYIFDRDVFRRDSIIGKVAIQKEDLQKYHNRDTWFQLQHVDADSEVQGKVHLELRLSEVITDTGVVCHKLATRIVECQGLPIVNGQCDPYATVTLAGPFRSEAKKTKV”, the “soluble on expression in E. coli” value is recorded as “not soluble”. The entry for “MLSGYIAGAIMKQEVILVLDCGATNVRAIAVNRQGKIVARASTPNASDIAMENNTWHQWSLDAILQRFADCCRQINSELTECHIRGIAVTTFGVDGALVDKQGNLLYPIISWKCPRTAAVMDNIERLISAQRLQAISGVGAFSFNTLYKLVWLKENHPQLLERAHAWLFISSLINHRLTGEFTTDITMAGTSQMLDIQQRDFSPQILQATGIPRRLFPRLVEAGEQIGTLQNSAAAMLGLPVGIPVISAGHDTQFALFGAGAEQNEPVLSSGTWEILMVRSAQVDTSLLSQYAGSTCELDSQAGLYNPGMQWLASGVLEWVRKLFWTAETPWQMLIEEARLIAPGADGVKMQCDLLSCQNAGWQGVTLNTTRGHFYRAALEGLTAQLQRNLQMLEKIGHFKASELLLVGGGSRNTLWNQIKANMLDIPLKVLDDAETTVAGAALFGWYGVGEFNSPEEARAQIHYQFRYFYPQTEPEFIEEV” is “not soluble”. “MSLSDKTMTADEAVSRLRSGMTLGIGGWGSRRKPMALVRALLRSGITDLTVVSCGGPDVGMLAAAGRIRKLVAAFVTLDSIPLEPHYRAARERGALELMEIDEAMFLWGLRAAAGRLPFLPVRAGIGSDVMRVNPGLRTITSPYVDGETFVAMPALRLDAALVHLNRADRLGNGQYLGPDPYFDDLFCEAADTAYVSCERVVDTAELTKEAAPQTLLVKRHTVTGVVEAPNGADFTSCVPDYGRDEALQRYYATTPWPEFAERFLGGGEPAYRSAVQDWRKEREGHHHHHH”: the “soluble on expression in E. coli” value is “soluble”. The entry for “RKLATAAKVSAMGSLNDLFESVSDRLRDSGRLIVVDEAENLPLRALEIVRRLHDETGCGLVLSGMPRLVANLRGKHGELVQLYSRVSVALNLGESLPDDELFEIAKAALPDAVKHLLPDSVQALITVIGFNETLELVRLMGGTTYPLRQGYTKNSQSRVAYLEEIIGSEAAGRLVEAMAPCNLFIPRCETALYELRNRKIRSQFDRQTAGGTPAYEAVNDLALAHRLSDRHVWRILKQADKEAEQENLF” is “not soluble”; for “MSLDSIELMAKIHASARWSEAALQILADETRRILKHEAGTRAGEDPEQLHQMRVGIRRLRSALRLFEPALKLPKPARRRSLSPLAAVLGSVRDLDVQMEMLRERYLGALPEGEQQALERLLAHLESLRTQARSAMLRYLDGLDYEQFKSAYTEFLESPKFRRGADESLYHLLPAFLREALSTLWAHPGWEEPDVETMHDLRIAVKRVRYNLEFFLGCYGKAVRSLHGELKRIQEELGIIHDCDVLLGQLHTEPLGPATPWQQPFSRLTALVRNERRNAVRRFRRLKTRLLSEDMRNSLAVWVSWPGTADDEGHHHHHH” it is “not soluble”; for “MCSSETIVKLNVGGSVFETWKSTLTKQDGFFKTLVETNIPVKKDTSDCYFIDRSPKYFETVLNYMRSGVTVLPDSEKELQELKKEAEFYLLEQLVDLCEPINNQIRTYRSSHELLQIIASTKKPVVVINYITHNNDIIYIPEGFRFDEFVKKNSSVVEIYFQPMDNREPLPKDLRRHRGMKYYPEPVWSYRIYNSTHSGCVDLTAMDDLQKKIDSILNGE” it is “not soluble”. The entry for “MARRISEPAREIDIIHETDVLVVGSGPGGLPAALAAARAGAEVTLVERFGCFGGNLTVVGVEGMHWYRHEQTIESNGIAREFEEKAKEMGAAVPESQSLSHEIDSEGFKLVADRMVLDEPNIRPMLHRFFVAPLMEGDTIIGIVTESKSGREAILARRVIDATGDADVVTRAGAPVYKTPAEQMMAASVMFHLAGVDKQRFMDGIKADPQTYRDWGGGGEWNIETSGKEDDMFSPFLKKPFQQAIRDGLIPPHLNTIAGTWGAVHDTGELTYMNLIHLDGCDGTDPDSLTTYEIEGRRQTMLAIEALRRYTPGCENIRLRNFGMSIGIRDTRKVDCLYNMTETDVREQGRFEDSIGIFPEFIDGYGILILPTTGRYFQMPYRNLLPRGVKNLLVAGRITGGDRISHAATRNMACCAVTGQGAGIAAALSVKSNRPLDEIDPLLIQKELERQGGRHHLEHHHHHH” is “not soluble”; for “GPGSMNPATKDVASAEEESPVVCTAKQYIFDLHSYAWKESDCLIRIPRPHKGMGHGGMRVCYAVEDVDEEGAGTPMVAKMFRRNISNVVEKDYFNEGAAQCMCEEFANNFNRIHLTNIRKPNISFLQCYVVRIPRDSIPAASQRKRTGFFSYKTQDTGEVMFVMEPMLSGKFTKYNSNYGETYREDKKAALTSSEARRRTEIFEAAETFSHFTLVESGGSMLVCDLQGVNDFFTDPQIHTEDGKGLGMGNMGQEGIDKWIEKHECNDICRALGLQPLLGAVPSSTACAREENMYLGLRAQLQSQNPVRLRDLVPLTKPLEEMTEAERIEYALKVSRLTD” it is “soluble”. On to “MSLAEQESLALFDDTTEELFMKGTMLSTIFYNAENLFSVVRILVKETNADWDEKDIIVTGFFPALHEQEVYTFYGKMQEHAKFGQQFKADRFRKEMPQSRAGLINYLSGELFKGIGKVTAENIVDTIGDDAITKILSDPSLLNTVPKLPSGAAESLLASLRENQGLEHVMVGLNEYGFGPQLSMKIFQAYKQNAIEVLENNPYKLIEDVKGIGFQRADELGRKLGLGGNHPERLRAGILFMLDSVCMQQGHVYMEQEVLLGEVTYLLEESEGIRIDQSILVAQVEKLAEEQKIITENTRVYMPSLYYSESGFAYHVKRMLKQTEYQEQFPQSEFLLALGELEERIGVHYGDSQRQALEQALMSPMLVLTGGPGTGKTTVIKGIVELYAELNGVSLDPHAYKDGATFPVLLAAPTGRAAKRMSESTGLPAMTIHRLLGMNGQEQMDDDAERLIDGRLLIVDEMSMVDIWLANQLFRALPAHMQVVLVGDQDQLPSVGPGQVLKDILQSEQIPTVALSDIYRQKDGSSIIEMAHYIKEGMLPADFTKNSADRSFFHCTVNQIGDVVEQVVKNAKNKGFRAKDIQVLAPMYRGPAGIDILNKKLQEIFNPNDTGRRKEVQFGDIKYRVHDKVLQLINQPEKNVFNGDIGEIVSIIYAKENTEKQDLIVVQFDQTEVSYYRQEFNQLTHAYCCSIHKAQGSEFPIVIMPIVRSYYRMLRRDLLYTGVTRSKQFLILCGEEEAFRMGIERIDENKRNTTLSERLMSEDVLLEQMTNKRILTAENITEIDPMIGMEGITPEQFMVGEGHHHHHH”, for which the “soluble on expression in E. coli” value is reported as “soluble”. Consider “MGSDKIHHHHHHMKDKDINNDFNHIFPKDIRDDFLFSLDSYRLFLEGLSINPSLFYQKWSDVHLQSIIDKYWKPTQKSDWKWSLALPIFSLLENYINTFNKPIIIGFSGLPGSGKSTLGLWIDSVARELSLDIKVISLDDFYLPGHEMDVAMTGNPWNVPRGFPGSHSLDLLNQSLDVFLKTGVLNSPTFDKSLRDGKGDRSGWCDSQPRVLILEGWFVGCEAVSDLSKIDSMAADEFNLSLSQSEKDYRILIQESLFEYSHIWKKFEKIWHLKSSQFNNTILWKSQQEGEMIKLKGSGLKGNNLSNFIRMIQTSIPQQSLSFINSDTTVGINQDRRINFLKTSKYYF”, for which the “soluble on expression in E. coli” value is “not soluble”. The entry for “KIQEWLGESDYSDFLSVVEAVHDSGPSFVLQAMKSLDKYDAMMCISVDSMVNRIQELIDDTMVMSTNNPWGVIPSEGGAGLIFCRRNTVETLKLKPLAQLGYIDTELNTSDRRGMYRLVQRASKKLTAFGEVYSDMTNLRAHSEDYGFALGAKAERFINPEQPLLINE” is “not soluble”; for “LGSGTTEDVSDLPVEEQLRRLQEERTCKVCMDKEVSIVFIPCGHLVVCKDCAPSLRKCPICRSTIKGTVRTFLS” it is “soluble”; for “MSLEFIPRSEQRPIVDTSSTTLDLIYFDLVTLASNEQDIRRLPAHESLYVVLSGQVDIEVDGIMFEAVGRRADIWGGDADSVYAPVGANVRISARGAAAEVAIAGGLCDTRYAAFRITPDEVDAVNVGSSDTHSQRRIVHLLGQRQNGRCGNLLVSELYAGEGCWSGYPPHKHDTEDGDVETRHEELYHYRFQPETGFGSQITYDEDGPVKILMTRNGDTVLVDRGYHPTVTSPGHQGYIFTILVGKHRRGLIQRFDPAHQHLTKTIPGEGHHHHHH” it is “soluble”. The entry for “MGAGSQTTGAGQKKVQTITVGTGTQFPNICFIDEKGDLTGYDVELIKELDKRLPHYKFTFKTMEFSNLLVSLGQHKVDIVAHQMEKSKEREKKFLFNKVAYNHFPLKITVLQNNDTIRGIEDLKGKRVITSATSNGALVLKKWNEDNGRPFEIAYEGQGANETANQLKSGRADATISTPFAVDFQNKTSTIKEKTVGNVLSNAKVYFMFNKNEQTLSDDIDKALQEIIDDGTLKRLSLKWLGDDYSKEQYLEHHHHHH” is “soluble”.

As for “MTLMKSNLIAAAEIDRLDTWAKYTAPMCGSCMSSCCTLPVEVKIKDLIRIGIVDEFERGEPAKNIAKRLQKEGIVERYNQKSEIFTLQRMSNNDCLYLDRKSRLCTIYDKRPDTCRNHPKIGPRPGYCAYKPKPQVRPTNTSSRTLERFLEHHHHHH”, the “soluble on expression in E. coli” value was “not soluble”. In the case of “MRKTKIVCTIGPASESIEKLEQLIEAGMNVARLNFSHGSHEEHGARIKNIREASKKTGKTVGILLDTKGPEIRTHDFVDGQAELVTGAEVVLSTEQVLGTAEKFSVSYAGLYDDVDPGSRILIDDGLIELEVIEKADGNIRTKVLNSGTVKNKKGVNVPNVSIKLPGITEKDVKDIIFGIEQKVDFIAASFVRKAADVLEIRELLEEHNAQYIQIVPKIENQEGIDNIDSILEVSDGLMVARGDMGVEIPPEEVPLVQKRLIKKCNVLGKPVITATQMLDSMQRNPRPTRAEASDVANAIFDGTDAIMLSGETAAGQYPVEAVTMMANIAVRVEKSLQYEDMFKKRIKEFTPTITDAISQSVAHTALALDVAAIVAPTESGYTAKMISKYRPKSPIVAVTSDEQVGRRLALVWGVQAFMAEKRAASTDEMLDTAIQTGMDAGLIGLGDTVVITAGVPVAETGTTNLMKIHVVGEEVAKGQGIGRKAAKGKVVVAKTAAEAVANVNEGDILVTTSTDKDMIPAIEKAAALVVEEGGLTSHAAVVGVSIGIPVIVGVNGVTATLKNGQEVTVDAARGIVYNGHAEVL”, the “soluble on expression in E. coli” value was “soluble”. In the case of “GPGSMFHRTTPEEEVRKWTRSLRSEQRKIELQITKIRREEAKVKLSMKQAAKQNDQVVMRMLAKEMIRSRKAVNRMYASKAQMNSVSMQLQNQASQMKMSGSLKKSGEIMKEMNSLVKVKEVQQSMMAMSKEMVKAGLIDEIMNDTIDEALDDDISDTELEDEVNKVVMDVVQGQMDGARVGASRIPAQQQQQQETAEEEEDELMEKLNALRNS” it was “soluble”.
